This note sets out measurements from paper PMC3149894 (Journal of molecular biology, 2010).

The labels stand for the following.
B1: knobΔTAYT protein containing an MA(H)6 tag at the N-terminus (Ad5 fiber knob, TAYT deleted) (domain or fragment, human adenovirus serotype 5, UniProt P11818 387-581, looked up)
chain: GAITVGNKNNDKLTLWTTPAPSPNCRLNAEKDAKLTLVLTKCGSQILATVSVLAVKGSLAPISGTVQSAHLIIRFDENGVLLNNSFLDPEYWNFRNGDLTEGNAVGFMPNLSAYPKSHGKTAKSNIVSQVYLNGDKTKPVTLTITLNGTQETGDTTPSAYSMSFSWDWSGHNYINEIFATSSYTFSYIAQE
B2: knobΔTAYT version with an N-terminal MA(H)6 tag followed by an AviTag (biotinylated) (domain or fragment, human adenovirus serotype 5, UniProt P11818 387-581, looked up)
chain: GAITVGNKNNDKLTLWTTPAPSPNCRLNAEKDAKLTLVLTKCGSQILATVSVLAVKGSLAPISGTVQSAHLIIRFDENGVLLNNSFLDPEYWNFRNGDLTEGNAVGFMPNLSAYPKSHGKTAKSNIVSQVYLNGDKTKPVTLTITLNGTQETGDTTPSAYSMSFSWDWSGHNYINEIFATSSYTFSYIAQE
modifications: biotin (biotinylated in the host by protein biotin ligase from pBirA)
B3: biotinylated knobΔTAYT protein carrying an N-terminal MRGS(H)6 tag followed by an AviTag (domain or fragment, human adenovirus serotype 5, UniProt P11818 387-581, looked up)
chain: GAITVGNKNNDKLTLWTTPAPSPNCRLNAEKDAKLTLVLTKCGSQILATVSVLAVKGSLAPISGTVQSAHLIIRFDENGVLLNNSFLDPEYWNFRNGDLTEGNAVGFMPNLSAYPKSHGKTAKSNIVSQVYLNGDKTKPVTLTITLNGTQETGDTTPSAYSMSFSWDWSGHNYINEIFATSSYTFSYIAQE
modifications: biotin (biotinylated in the host by protein biotin ligase from pBirA)

This data set deals with the molecule itself. Briefly: SEC-MALS + other: SDS-PAGE. In general terms: In gel filtration, larger molecules generally elute earlier.
In general, stoichiometry N refers to the number of molecules, sites or subunits per partner or assembly. As to B1, the “stoichiometry N” value turned out to be 3.

Consider B2, for which the “stoichiometry N” value turned out to be 3.

Regarding B3, the “stoichiometry N” value came to 3.
